The numbers were not newly measured in PMC4520744, which cites them from elsewhere.

What is called Kd is the concentration at which binding is half-saturated.

This series concerns the target HBV capsid protein (Hepatitis B virus) (UniProt P03149).

Consider “HBV capsid protein (from UniProt P03149)”, for which the Kd was 3000 µM.
